Earlier results in publication PMC10935306.

Molecular target: Ship2 Sam (Homo sapiens) (UniProt O15357)
Sequence of UniProt O15357 (O15357 1193-1258): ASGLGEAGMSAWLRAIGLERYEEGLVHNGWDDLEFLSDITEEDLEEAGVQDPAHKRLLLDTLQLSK

- Kd: 750 nM
Substance: EphA2 Sam (from UniProt P29317)
